Test results reported in patent publication US20180179500.

Target: MspA-((Del-L74/G75/D118/L119)D56F/E59R/L88N/D90N/D91N/Q126R/D134R/E139K)8

Protein	% complement bases missed through slipping	Average slip length	Number complement slips per 3.6 kb (slips per 3.6 kb)	Number complement slips per kb	Total length of complement slips
T4 Dda-F98W/E94C/C109A/C136A/K194L/A360C (protein) GTFDDLTEGQKNAFNIVMKAIKEKKHHVTINGPAGTGKTTLTKFIIEALISTGETGIILAAPTHAAKKILSKLSGKEASTIHSILKINPVTYECNVLWEQKEVPDLAKARVLICDEVSMYDRKLFKILLSTIPPWATIIGIGDNKQIRPVDPGENTAYISPFFTHKDFYQCELTEVKRSNAPIIDVATDVRNGLWIYDKVVDGHGVRGFTGDTALRDFMVNYFSIVKSLDDLFENRVMAFTNKSVDKLNSIIRKKIFETDKDFIVGEIIVMQEPLFKTYKIDGKPVSEIIFNNGQLVRIIEAEYTSTFVKARGVPGEYLIRHWDLTVETYGDDEYYREKIKIISSDEELYKFNLFLGKTCETYKNWNKGGKAPWSDFWDAKSQFSKVKALPASTFHKAQGMSVDRAFIYTPCIHYADVELAQQLLYVGVTRGRYDVFYV	1.9%	23.3	3	0.8 slips per kb	70
T4 Dda-E94C/F98W/C109A/C136A/K199L/A360C (protein) GTFDDLTEGQKNAFNIVMKAIKEKKHHVTINGPAGTGKTTLTKFIIEALISTGETGIILAAPTHAAKKILSKLSGKEASTIHSILKINPVTYECNVLWEQKEVPDLAKARVLICDEVSMYDRKLFKILLSTIPPWATIIGIGDNKQIRPVDPGENTAYISPFFTHKDFYQCELTEVKRSNAPIIDVATDVRNGKWIYDLVVDGHGVRGFTGDTALRDFMVNYFSIVKSLDDLFENRVMAFTNKSVDKLNSIIRKKIFETDKDFIVGEIIVMQEPLFKTYKIDGKPVSEIIFNNGQLVRIIEAEYTSTFVKARGVPGEYLIRHWDLTVETYGDDEYYREKIKIISSDEELYKFNLFLGKTCETYKNWNKGGKAPWSDFWDAKSQFSKVKALPASTFHKAQGMSVDRAFIYTPCIHYADVELAQQLLYVGVTRGRYDVFYV	3.6%	21.5	6	1.7 slips per kb	129
